Assay results taken from publication PMC4009770, “A Comparison of Two Single-Stranded DNA Binding Models by Mutational Analysis of APOBEC3G”.

Tests used:
Test in all cases: EMSA; EMSA: 10 mM Tris-HCl pH 7.5, 50 mM NaCl, 0.5% NP-40, 4% glycerol, 1 mM MgCl2, 0.5 mM EDTA, 1 mM DTT, 20 min room temperature, 4 pmol oligo in 20 uL, gel at 4 C; NMR: 50 mM sodium phosphate pH 7.4, 1 mM DTT, 50 uM ZnCl2, 300 uM protein
A3G R215E = A3G R215E (human, UniProt Q9HC16 1-384, R215E); details: protein: recombinant; tags: C-terminal Strep; label: 5' Alexa488; single strand
Chain of A3G R215E (Q9HC16 whole entry R215E): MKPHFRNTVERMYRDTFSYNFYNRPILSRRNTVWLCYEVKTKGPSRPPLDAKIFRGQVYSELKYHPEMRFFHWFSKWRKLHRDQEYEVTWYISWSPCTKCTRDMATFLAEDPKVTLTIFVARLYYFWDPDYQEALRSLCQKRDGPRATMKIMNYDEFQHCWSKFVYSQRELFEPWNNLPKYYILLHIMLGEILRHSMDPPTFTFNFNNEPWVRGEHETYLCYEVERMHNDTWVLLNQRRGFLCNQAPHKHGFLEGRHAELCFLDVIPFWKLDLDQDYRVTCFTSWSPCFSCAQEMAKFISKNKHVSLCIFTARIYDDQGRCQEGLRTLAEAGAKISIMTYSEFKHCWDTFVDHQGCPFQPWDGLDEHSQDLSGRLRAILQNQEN

A3G R213E/R215E = A3G R213E/R215E (human, UniProt Q9HC16 1-384, R213E;R215E); details: protein: recombinant; tags: C-terminal Strep; label: 5' Alexa488; single strand
Chain of A3G R213E/R215E (Q9HC16 whole entry R213E/R215E): as the sequence (Q9HC16 whole entry R215E) above, with R213E counted along it

A3G R313E/R320E = A3G R313E/R320E (human, UniProt Q9HC16 1-384, R313E;R320E); details: protein: recombinant; tags: C-terminal Strep; label: 5' Alexa488; single strand
Chain of A3G R313E/R320E (Q9HC16 whole entry R313E/R320E): as the sequence (Q9HC16 whole entry R215E) above, with E215R, R313E, R320E counted along it

A3G R313E = A3G R313E (human, UniProt Q9HC16 1-384, R313E); details: protein: recombinant; tags: C-terminal Strep; label: 5' Alexa488; single strand
Chain of A3G R313E (Q9HC16 whole entry R313E): as the sequence (Q9HC16 whole entry R215E) above, with E215R, R313E counted along it

A3G-S wild type = A3G-S wild type (human, UniProt Q9HC16 1-384); details: protein: recombinant; tags: C-terminal Strep (STP cleaved by TEV); label: 5' Alexa488; single strand
Chain of A3G-S wild type (Q9HC16 whole entry): as the sequence (Q9HC16 whole entry R215E) above, with E215R counted along it

A3G E67Q = A3G E67Q (human, UniProt Q9HC16 1-384, E67Q); details: protein: recombinant; tags: C-terminal Strep; label: 5' Alexa488; single strand
Chain of A3G E67Q (Q9HC16 whole entry E67Q): as the sequence (Q9HC16 whole entry R215E) above, with E67Q, E215R counted along it

A3G E259Q = A3G E259Q (human, UniProt Q9HC16 1-384, E259Q); details: protein: recombinant; tags: C-terminal Strep; label: 5' Alexa488; single strand
Chain of A3G E259Q (Q9HC16 whole entry E259Q): as the sequence (Q9HC16 whole entry R215E) above, with E215R, E259Q counted along it

A3G R374E/R376E = A3G R374E/R376E (human, UniProt Q9HC16 1-384, R374E;R376E); details: protein: recombinant; tags: C-terminal Strep; label: 5' Alexa488; single strand
Chain of A3G R374E/R376E (Q9HC16 whole entry R374E/R376E): as the sequence (Q9HC16 whole entry R215E) above, with E215R, R374E, R376E counted along it

Measured: binding result

B1: Alexa488 69-mer (ssDNA)
DNA: GAAGAGGAAGGGAAGAAAGAGAAAGGGAGACCCAAAGAGGAAAGGTGAGGAGGTTAATTTGTGTAAATA
binds: all assays above
